Target: Purified human C1q, P02745;P02746;P02747
Assay: FACS-based C1q binding assay
Details: for response: read off a plot

Q: Which results are given for 4A8 Parental E345R; E430G?
A: EC50: 0.0261 µM; response (parent: est. 65000): 750000 MFI

Q: How did the response (parent: est. 30000) turn out when S230 parental IgG1 E345R; E430G was run?
A: The response was 50000 MFI.

Q: Which EC50 does the source give for S309 parental IgG1 E345R; E430G here?
A: The EC50 was 0.01 µM.

Q: What about the response (parent: est. 42000) of the same substance?
A: Its response is 800000 MFI.

Q: With REGN10933 Parental E345R; E430G as the substance, how does the EC50 read?
A: Its EC50 is 0.004 µM.

Q: What about the response (parent: est. 42000) of the same substance?
A: Its response is 800000 MFI.

Q: How did the EC50 turn out when EY6A Parental E345R; E430G was run?
A: Its EC50 is 0.0421 µM.

Q: And the response (parent: est. 75000)?
A: The response was 830000 MFI.

Q: Which results are given for REGN10987 Parental E345R; E430G?
A: EC50: 0.0105 µM; response (parent: est. 85000): 830000 MFI

From article PMC9114490
